Laboratory results published in patent US20260234584A1, “R-LOOP SENSOR” (FUNDAÇÃO GIMM - GULBENKIAN INSTITUTE FOR MOLECULAR MEDICINE, priority 2023, published 2026).

B1: RHINO: genetically encoded RNA:DNA hybrid-binding sensor; fusion protein comprising 3 HBDs and a reporter domain (e.g., a fluorescent protein) (protein)
chain: MFYAVRRGRKTGVFLTWNECRAQVDRFPAARFKKFATEDEAWAFVRKSASVDGTAGPGSAVFYAVRRGRKTGVFLTWNECRAQVDRFPAARFKKFATEDEAWAFVRKSASVDGTAGPGSAVFYAVRRGRKTGVFLTWNECRAQVDRFPAARFKKFATEDEAWAFVRKSASVDGTAGPGSTGVTGKLDPPVATMVSKGEEDNMASLPATHELHIFGSINGVDFDMVGQGTGNPNDGYEELNLKSTKGDLQFSPWILVPHIGYGFHQYLPYPDGMSPFQAAMVDGSGYQVHRTMQFEDGASLTVNYRYTYEGSHIKGEAQVKGTGFPADGPVMTNSLTAADWCRSKKTYPNDKTIISTFKWSYTTGNGKRYRSTARTTYTFAKPMAANYLKNQPMYVFRKTELKHSKTELNFKEWQKAFTDVMGMDELYK

Key:
Type in all cases: cell-based, human
[1] = test system: R-loops foci in U2OS cells; assay: Quantification of RHINO R-loops foci after transcription inhibition with triptolide
Text: (A) Illustration of RHINO structure (left) and DNA:RNA hybrid labelling in an R-loop behind a transcribing RNA Pol II complex (right). The positions of the amino acids substituted in the RHINO mutants are indicated by red […]) and blue ([…]) asterisks. (B) Confocal microscopy images of RHINO expressed in U2OS cells together with mCherry-H2B to mark the cell nucleus and a corresponding max. intensity projection. RHINO spots throughout the nucleoplasm (highlighted in inset image) and intense labelled foci in the nucleoli are shown. (C) Comparison of RHINO and S9.6 antibody labelling of DNA:RNA hybrids. The nucleolar signals of S9.6 and RHINO are mutually exclusive (inset). (D) Expression of two RHINO mutant constructs and mCherry-histone-H2B. […] (E) Max. intensity projections of live U2OS cells expressing RHINO alone (left) or co-expressing mScarlet-i tagged human RNase H1 (right) and quantification of RHINO foci for each condition. (F) Quantification of RHINO foci upon use of a rapid inducible RNase H1. […] Quantification of RHINO foci before and 1 h after TA addition. (G) Max. intensity projections of random live U2OS cells expressing RHINO before and after 1 h incubation with Triptolide and quantification of RHINO foci number. (H) Max. intensity projections of the same live U2OS cells expressing RHINO before and after 1 h incubation with Triptolide and quantification of RHINO foci number. […]

[2] = test system: nucleolar R-loops in U2OS cells; assay: FRAP on individual nucleolar RHINO foci; conditions: in 200 seconds
Text: (A) Labelling of nucleolar R-loops in live U2OS cells. Nucleoli are labelled by a red fluorescent nucleolar marker. Bright RHINO foci in several nucleoli are indicated with arrowheads. (B) Dissecting R-loop localization in nucleolar substructures. U2OS cells expressing RHINO were fixed and stained with an anti-UBF antibody marking the fibrillar centres/dense fibrillar component interface. Display of two super-resolution microscopy image sets acquired with structured illumination (top) and Airyscan 2 technology (bottom). (C) Measurements of nucleolar R-loops dynamics by FRAP on RHINO foci inside nucleoli. The fluorescence within the red circle was bleached (false colour images) and the recovery monitored over time. […] (D) Labelling of Tel-R-loops in live U2OS cells co-expressing RHINO and iRFP-TRF2. […]
Owing to the lack of robust tools to image and collect quantitative parameters of R-loops in live cells, a clear understanding of R-loops dynamics and of their specific kinetics at distinct genomic loci is scarce. […] To investigate the dynamics of nucleolar R-loops, fluorescence recovery was performed after photobleaching (FRAP) experiments in individual nucleolar RHINO foci (FIG. 2C). We observed a rapid turnover of fluorescent RHINO molecules, which restored 90% of the initial fluorescence intensity in 200 seconds (FIG. 2C).

[3] = test system: telomeric R-loops in U2OS cells; assay: FRAP at labelled telomeres
Text: (A) Labelling of nucleolar R-loops in live U2OS cells. Nucleoli are labelled by a red fluorescent nucleolar marker. Bright RHINO foci in several nucleoli are indicated with arrowheads. (B) Dissecting R-loop localization in nucleolar substructures. U2OS cells expressing RHINO were fixed and stained with an anti-UBF antibody marking the fibrillar centres/dense fibrillar component interface. Display of two super-resolution microscopy image sets acquired with structured illumination (top) and Airyscan 2 technology (bottom). (C) Measurements of nucleolar R-loops dynamics by FRAP on RHINO foci inside nucleoli. The fluorescence within the red circle was bleached (false colour images) and the recovery monitored over time. […] (D) Labelling of Tel-R-loops in live U2OS cells co-expressing RHINO and iRFP-TRF2. Several telomeres show directly adjacent or overlapping labelling of R-loops (magnified details 1-5). […] (E) Measurements of Tel-R-loops dynamics by FRAP of wild-type RHINO compared to both mutants and diffuse GFP at labelled telomeres. False colour images show the wild-type RHINO labelled cell with the bleach region (red circle). The curves display the mean intensity (+/−SD) of RHINO foci, RHINO mutants and diffuse GFP as control. […]

Molecule	number of R-loops foci detected by RHINO ([1]; one-hour treatment, bulk cell population of U2OS cells)	reduction in the number of R-loops foci ([1]; same RHINO-expressing cells imaged before and one hour after treatment) [%]	restored initial fluorescence intensity after photobleaching [2] [%]	fluorescence recovery relative to initial intensity ([3]; major fraction of telomeric R-loops, within 10-15 seconds after photobleaching) [%]	fluorescence recovery, second population of telomeric R-loops ([3]; other (minor) population of telomeric R-loops)
CC(C)[C@]12O[C@H]1[C@@H]1O[C@]13[C@]1(O[C@H]1C[C@H]1C4=C(CC[C@@]13C)C(=O)OC4)[C@@H]2O [triptolide]	significantly decrease	46			
B1			90	88	little to no recovery
